Reference: the DeepSol protein solubility set

Test: soluble on expression in E. coli; label from the status in PepcDB or PDB records

Row | Sequence | soluble on expression in E. coli
1 | MSLSDGYHRSPSSRVPRIEGCQHTADASPSDATGPRRHAMTAHNREPVDYLAGEMPLHRYCAHHAAQTPERIALLWYGRTICWRELDQLSTRLAVQFQRLGVARGDRVALFLQNCPQAILAHLAAAKLGAIAVPCLPLSRQHELRDQLTDCGAKILIAAADLMPIVDAARPGTAIATVITTRYADLQPAQPACRKALAVPPELIAADAASAPAGRGQAGSGQFDLMQLLAEPVDVAERNAVAAIQVDLDEVALMIYTSGTTGRPKGAMLTHRNALYKTAVTVQMSGIHAADVLLAAAPLSHIAGMLMGMNLMLYAGAPTILLFRFDPLAVLQAIDRYCVTWWYSMTPMNLAVMAHPEAGQYRMASLVNNPCTSFGAPLTEAIADRWRAFAGPKCRIYEAAYGLSETHTCDTVTPPDAPRWGWHGKIVPQTEVRIVDPRTGTALPPGRSGEITIRSPGVFRGYWRRDEATRAALQDGFLRTGDIGQVSPDGYLQWQGRLKELIKVSGYSVFPEDVEALLSRHPAIRQVAVTPLPDPDKGEVVCAHVVRMSGTALTEAELIAWSRENMAPYKVPRRVRFHDALPATVTGKILRRLLREEAAVAEGHHHHHH | soluble
2 | MSNPILTSTLIILRGNSSSGKTTIAKQLQEHFGQGTLLVSQDVVRRDMLRVHDTMGNLSHDLLFEITKYGKGKCEFVILEGILNSHRYGEMLKELIRYFDENAFAYYFDLSLEETIRRHNTRDKRHEFGEDSLQKWYNPHDTIKVATETIFTDNFTQKDIFDAILNDVAIEKQALEHHHHHH | soluble
3 | MGSDKIHHHHHHMKKAAIITIGSELLEGLILNKNAQFLCQELKNLGYRVVKVSTVGDDLISISEEVKTLLLKVDLLILTGGLGPTQDDLTRDAVAKVLNRSLKLNEELLSKIKEKIKKYHSEIPQNIERQALVIDGAEVLDNPVGSAPGQLLTVDGKIVILLPGPPRELIPMFNALKDRLRTPDALYQVVLKYYSIPEAVLEDLLKDILYSQNIVEVATMADHVEGVRLRLTTHMKNKEYLDEMVKKILDKTGEHLYGVNDEKMEEVVVRLLKDRKKTLAVAESCTGGMLSSLVVNVPGASEVFIGGVVAYSNDLKKHILGVREDTLKKHGAVSEECVQEMTEGLKKLTGADICVSISGIAGPSGGTPEKPVGTVFIDIFEHEHITMRYNFTGDRNMIRTRSAMMALENLRKYLKGRERV | not soluble
4 | MEKKRVVITGLGAVTPVGTDVETAWENIKKGVSGIGRLTRIDPELFPAKVAAEINDFEVEKYIDKKEARRMDRFTQYAVAAAKMAVADAKLEITEENGPRIGVWIGSGIGGMETYEEQFKIFTEKGPRRVSPFFVPMMIPDMAAGQVSIATGAKGINTCSVTACASGANSIGDAFKAIQRGDADAMITGGAEAPLTSMAFAGFSSAKALTFNEDPATACRPFDKNRSGFVMGEGSGILILEELEHALARGAHIYAEIAGYGATGDAFHITMPAPGGEGGVRAMRQALADAGLQPEDIDYINAHGTSTDANEKYETMAIKETFGEHAYKVAISSTKSMTGHLLGAAGAVEAIFSIKSITDGVIPPTINYETPDPECDLDYVPNNARHQEVNAVLSNSLGFGGHNAVLVFKSYK | not soluble
5 | GTENLYFQGMSDVIEGRLKELGFTLPVAAAPAANYVPFTISGNLLYVSGQLPMESGKIAVTGLVGRDVDVASAQRAAELCAVNILAQVKAALNGDLSKIRRVIKLNGFVASVPEFVEQHLVINGASNLIATVLGEPGRHARAAVGMASLPFNASVEIDAIVEIDV | soluble
6 | MGSDKIHHHHHHMQEMILLQQKVDETIRALGGYFRPLSGLARLIEEVGEVGEALETGDELSFQAELVDVLMISTCLANQYVTDLAQQHQQLGTMEDEGQGSFYRLVHEAGQVARVMNGYEGDKPPKQTEDIIPIGMSLARLQRELFRLVRPHGINLLQEIDRTNEKNLNRDRKRFALTRDPVTEATIDHFRSATGNTERLWGAPAYESDLALEAHIQAALPSLRRFLRCARIEGIAGFVIEAPMERTDSLRSVKDQADEIGRIVKEQTPLSFKEAPYRIDVYAPQLGPVSPYHAEDDHRMFLVLHVDE | not soluble
7 | MGSDKIHHHHHHMMKTDYVFCVDSDGCAMDTMTYKHKLFFGPLAADVFDVKDREPFLAEWNRVNLYSRERGINRFVGLVKGLDFAGVTGIDNLKNWVATTDSLSNASLERLIEETPSKDLELALEWSTQVNQAIKHYSGPVLAFIGVHKGLEKLSQLGKVYVVSSANKEAVEEEWTDQGLLDFVTELYCQDRGKKEDVIKILIEEGYCPDKIMMIGDSPGDLKAAELNGVHFYPILVGQEMQSWADLTETIADEFAHQAFTGEKETELIQAFWNNLDD | not soluble
8 | MPGSPRPAPSWVLLLRLLALLRPPGLGEACSCAPAHPQQHICHSALVIRAKISSEKVVPASADPADTEKMLRYEIKQIKMFKGFEKVKDVQYIYTPFDSSLCGVKLEANSQKQYLLTGQVLSDGKVFIHLCNYIEPWEDLSLVQRESLNHHYHLNCGCQITTCYTVPCTISAPNECLWTDWLLERKLYGYQAQHYVCMKHVDGTCSWYRGHLPLRKEFVDIVQP | soluble
9 | MGHHHHHHSHMQVTITLTSPIIREENMREGDVTSGMVKDPPDVLDRQKCLDALAALRHAKWFQARANGLQSCVIIIRILRDLCQRVPTWSDFPSWAMELLVEKAISSASSPQSPGDALRRVFECISSGIILKGSPGLLDPCEKDPFDTLATMTDQQREDITSSAQFALRLLAFRQIHKVLGMDPLPQMSQRFNIHNNRKRRRDSDGVDGFEAEGKKDKKDYDNF | not soluble
10 | AMRQCAIYGKGGIGKSTTTQNLVAALAEMGKKVMIVGCDPKADSTRLILHSKAQNTIMEMAAEAGTVEDLELEDVLKAGYGGVKCVESGGPEPGVGCAGRGVITAINFLEEEGAYEDDLDFVFYDVLGDVVCGGFAMPIRENKAQEIYIVCSGEMMAMYAANNISKGIVKYANSGSVRLGGLICNSRNTDREDELIIALANKLGTQMIHFVPRDNVVQRAEIRRMTVIEYDPKAKQADEYRALARKVVDNKLLVIPNPITMDELEELLMEFGIMEVEDESIVGKTAEEV | soluble
11 | MSVDMNSQGSDSNEEDYDPNCEEEEEEEEDDPGDIEDYYVGVASDVEQQGADAFDPEEYQFTCLTYKESEGALNEHMTSLASVLKVSHSVAKLILVNFHWQVSEILDRYKSNSAQLLVEARVQPNPSKHVPTSHPPHHCAVCMQFVRKENLLSLACQHQFCRSCWEQHCSVLVKDGVGVGVSCMAQDCPLRTPEDFVFPLLPNEELREKYRRYLFRDYVESHYQLQLCPGADCPMVIRVQEPRARRVQCNRCNEVFCFKCRQMYHAPTDCATIRKWLTKCADDSETANYISAHTKDCPKCNICIEKNGGCNHMQCSKCKHDFCWMCLGDWKTHGSEYYECSRYKENPDIVNQSQQAQAREALKKYLFYFERWENHNKSLQLEAQTYQRIHEKIQERVMNNLGTWIDWQYLQNAAKLLAKCRYTLQYTYPYAYYMESGPRKKLFEYQQAQLEAEIENLSWKVERADSYDRGDLENQMHIAEQRRRTLLKDFHDT | soluble
12 | DSNLLLKLGMLTGRIVPDNQAVYAKDFKPESILGASNLSFRGNVNISEGQSADVVFLNADNGILVQDLPFEVKLKKFHIDFYNTGMPRDFASDIEVTDKATGEKLERTIRVNHPLTLHGITIYQASFADGGSDLTFKAWNLGDASREPVVLKATSIHQFPLEIGKHKYRLEFDQFTSMNVEDMSEGAEREKSLKSTLNDVRAVTQEGKKYTNIGPSIVYRIRDAAGQAVEYKNYMLPVLQEQDYFWITGTRSGLQQQYRWLRIPLDKQLKADTFMALREFLKDGEGRKRLVADATKGAPAEIREQFMLAAENTLNIFAQKGYLGLDEFITSNIPKEQQDKMQGYFYEMLYGVMNAALDETIRRYGLPEWQQDEARNRFLLHSMDAYTGLTEYPAPMLLQLDGFSEVRSSGLQMTRSP | not soluble
13 | MSLKEESLLEYYAQDSFYAEYSSGTGYEIQERALRSTFSRYMKELHKRNVTGGKLLEIGCGFGFLLDEAKNYFDYRIGTDFSSEAVSHAKKYADNVYCGGLEAIPSDTSTKFDCVITFSVLEHVYNPNTFIQEIQNYMAPNGSLVVSTPFIGGMWYKILGKKWSFFIPPEHVCLYNHNSISQLLKQNGFKNIEMFISSHAWPVAGFLSKMGMRKLSSMTLKLKIGDVPLFVPFTIINIIGSKEGHHHHHH | not soluble
14 | MSLKMANPKYKRILIKLSGEALAGERGVGIDIQTVQTIAKEIQEVHSLGIEIALVIGGGNLWRGEPAAEAGMDRVQADYTGMLGTVMNALVMADSLQQVGVDTRVQTAIAMQQVAEPYVRGRALRHLEKGRIVIFGAGIGSPYFSTDTTAALRAAEIEADAILMAKNGVDGVYNADPKKDKTAVKFEELTHRDVINKGLRIMDSTASTLSMDNDIDLVVFNMNQSGNIKRVVFGENIGTTVSNNIEEKEEGHHHHHH | soluble
15 | MRIGLFGGSFDPIHLGHLLAASQAQEVLCLDRVLFVVAARPPHKVPVAPAEARYEMTLLAVAEDPRFTVSRLELDRPGPSYTVDTLREARRLFPQDELFFITGADAYRDVLTWKEGERLPEYATLVAVARPGYPLEEAPLPVVPLFVPEVGISSTEIRRRLKEGRSVRYWVPRAVEVYIEKHGLYR | soluble
16 | MSILEKIFKTRKDITYMLDLDMIEDLSQQAYVKRLAIDSCIEFVARAVAQSHFKVLEGNRIQKNDVYYKLNIKPNTDLSSDSFWQQVIYKLIYDNEVLIVVSDSKELLIADSFYREEYALYDDIFKDVTVKDYTYQRTFTMQEVIYLKYNNNKVTHFVESLFEDYGKIFGRMIGAQLKNYQIRGILKSASSAYDEKNIEKLQAFTNKLFNTFNKNQLAIAPLIEGFDYEELSNGGKNSNMPFSELSELMRDAIKNVALMIGIPPGLIYGETADLEKNTLVFEKFCLTPLLKKIQNELNAKLITQSMYLKDTRIEIVGVNKKDPLQYAEAIDKLVSSGSFTRNEVRIMLGEEPSDNPELDEYLITKNYEKANSGENDEKEKDENTLKGGDEDESGD | not soluble
17 | LTVGDWLDSIRMGRYRDHFAAGGYSSLGMVLRMNAQDVRALGITLMGHQKKILGSIQTMRAQLTSTQG | soluble
18 | MGSDKIHHHHHHMLRGKDATLAAIINIILDEEPETQDDIADRLGVSRRYVAKLLKPLVDGGAIMHPYVVNLEKLKEFEEYIETDRYFKEIYETFDRMGTNVIQNIDKVFDSLKTHDLDIAKSIILEDYALNRMEDEVNLVIKMKASKYMDMNSLMQVSNIAANIERCGDYLSNIAEEVVNGLLVDPAIKKEVFEIKEIISKMFAHAMNMVKSKTIETEIYELEGNLHKKLDTMMEKIAEHPDENLKDINQFIQFGMFLKDVERFGDRCLKIFELGREFHHNIPKNVTTPEYVRNLK | not soluble
19 | MGTEFNGLFDEWAHTYDSFVQGEDIQYKEVFAHYEDILEDVVNKSFGNVLEFGVGTGNLTNKLLLAGRTVYGIEPSREMRMIAKEKLPKEFSITEGDFLSFEVPNSIDTIVSTYAFHHLTDDEKNVAIAKYSQLLNKGGKIVFADTIFADQDAYDKTVETSKRKRFPPVSKRFANGILYTYSSYADYFLEHHHHHH | soluble
20 | MGSDKIHHHHHHMGIGRGYAVWSPRSIYLTDFVYANFLEELIMQTLIIYSTIDGQTLAICQKMKTIAEQAGEQVALVTLEQADALSLADFDKVLIGASIRYGKHRPELYQFVNRHHAVLDTKINGFFTVNVVARKPLKNTPETNPYMQKFLQLSLWQPQLLEVFAGKIDYPKYGFFDRTMIRFIMWMTKGPTDITGTFEFTDWEKVDAFGNRFSQH | not soluble
21 | ILEQDLNDFMSTGAHGLDLYQLVVGGTAPMLNLVEKGKIPPPATTPEKAGMYELGVNFMAKHHMKQLSVNHWAVDNRERSLYNSLAKTYAE | not soluble
22 | MQAWFMDDSNEDQRLPHHRNPKELVSLDYLAELGVLYWKLNPENYENDSELSKIREDRGYDYMDLLDLCPEKVSNYEEKLKNFFTEHIHKDEEIRYCLAGSGYFDVRDKDDRWIRIWMQPGDLIVLPAGIYHRFTLDASNYIKLMRLFVGEPVWTPYNRPQEEHPVRKKYIHGLTYKFGETVKAH | soluble
